Patent US20230407373A1 (priority 2020, published 2023)
Entries after “also recorded” stand apart in the source; their conditions may differ. Where two headings read alike, the source gives them in different places.

Experiments:
SARS-CoV-2 gRNA = assay type: binding; conditions: for target (unweighted spectral count of the protein in the RNP capture): LC-MS/MS, Probe I sample (first 199 lines of Table 2)
[1] = tested on: SARS-CoV-2 gRNA and sgRNAs; assay type: binding; conditions: for target (unweighted spectral count in RNP capture): Probe II capture, LC-MS/MS LFQ; for background (unweighted spectral count in control): no-probe control pull-down, used as background for Probe II
gRNA of HCoV-OC43 = assay type: binding; conditions: for target (spectral count) / background (spectral count): type g_36_m, 36 hpi, Probe I; for target (spectral count): HCoV-OC43-infected HCT-8 cells; for background (spectral count): uninfected-probe control; for target (spectral count, OC43 Probe I RNP capture) / background (spectral count, no-probe control): type n_48_v: 48 hours post-infection; for target (spectral count, OC43 Probe I RNP capture): infected cells, unweighted spectral count; for background (spectral count, no-probe control): no-probe control on infected cells
HCoV-OC43 gRNA and sgRNA = assay type: binding; conditions: for target (unweighted spectral count): OC43 Probe II, infected cells; for target (unweighted spectral count, OC43 Probe II) / background (unweighted spectral count, no-probe control): type n_48_v, 48 hpi; for target (unweighted spectral count, OC43 Probe II): OC43 Probe II capture on infected cells; for background (unweighted spectral count, no-probe control): no-probe control on infected cells; for target (spectral count) / background (spectral count): type s_36_m, Probe II; for target (spectral count): HCoV-OC43-infected HCT-8 cells; for background (spectral count): uninfected-probe control
SARS-CoV-2 = assay type: cell-based; conditions: for change in viral RNA levels (gRNA, N sgRNA) after siRNA depletion: Calu-3 cells, 50 nM siRNA, RT-qPCR, relative to siNC
[2] = 12 hpi (type n_12_v), tested against no-probe control
[3] = 24 hpi (type n_24_v), tested against no-probe control

Molecule	enrichment in SARS-CoV-2 Probe I RNP capture (SARS-CoV-2 gRNA)	target (unweighted spectral count of the protein in the RNP capture) (SARS-CoV-2 gRNA)	enrichment in SARS-CoV-2 Probe II RNP capture [1]	target (unweighted spectral count in RNP capture) [1]	background (unweighted spectral count in control) [1]	enrichment / detection in HCoV-OC43 Probe I RNP capture (gRNA of HCoV-OC43; infected HCT-8 cells)	target (spectral count) (gRNA of HCoV-OC43)	background (spectral count) (gRNA of HCoV-OC43)	target (spectral count, OC43 Probe I RNP capture) (gRNA of HCoV-OC43)	background (spectral count, no-probe control) (gRNA of HCoV-OC43)	target (unweighted spectral count, OC43 Probe II capture) (HCoV-OC43 gRNA and sgRNA; 36 hpi, type n_36_v, tested against no-probe control, FDR<10%)	target (unweighted spectral count) (HCoV-OC43 gRNA and sgRNA; [2])	target (unweighted spectral count) (HCoV-OC43 gRNA and sgRNA; [3])	enrichment / detection in HCoV-OC43 Probe II RNP capture (HCoV-OC43 gRNA and sgRNA; infected HCT-8 cells)	target (unweighted spectral count, OC43 Probe II) (HCoV-OC43 gRNA and sgRNA)	background (unweighted spectral count, no-probe control) (HCoV-OC43 gRNA and sgRNA)	target (spectral count) (HCoV-OC43 gRNA and sgRNA; 36 hpi)	background (spectral count) (HCoV-OC43 gRNA and sgRNA; 36 hpi)	change in viral RNA levels (gRNA, N sgRNA) after siRNA depletion (SARS-CoV-2)	antiviral or proviral role of the host protein indicated by knockdown (SARS-CoV-2)
FUBP3: host protein, UniProt Q96I24 (protein, UniProt Q96I24 2-572, looked up) Far upstream element-binding …: AELVQGQSAPVGMKAEGFVDALHRVRQIAAKIDSIPHLNNSTPLVDPSVYGYGVQKRPLDDGVGNQLGALVHQRTVITEEFKVPDKMVGFIIGRGGEQISRIQAESGCKIQIASESSGIPERPCVLTGTPESIEQAKRLLGQIVDRCRNGPGFHNDIDSNSTIQEILIPASKVGLVIGRGGETIKQLQERTGVKMVMIQDGPLPTGADKPLRITGDAFKVQQAREMVLEIIREKDQADFRGVRGDFNSRMGGGSIEVSVPRFAVGIVIGRNGEMIKKIQNDAGVRIQFKPDDGISPERAAQVMGPPDRCQHAAHIISELILTAQERDGFGGLAAARGRGRGRGDWSVGAPGGVQEITYTVPADKCGLVIGKGGENIKSINQQSGAHVELQRNPPPNSDPNLRRFTIRGVPQQIEVARQLIDEKVGGTNLGAPGAFGQSPFSQPPAPPHQNTFPPRSSGCFPNMAAKVNGNPHSTPVSGPPAFLTQGWGSTYQAWQQPTQQVPSQQSQPQSSQPNYSKAWEDYYKKQSHAASAAPQASSPPDYTMAWAEYYRQQVAFYGQTLGQAQAHSQEQ	enriched; also recorded: found in the SARS-CoV-2 experiments	94	enriched; also recorded: found in the SARS-CoV-2 experiments	173	1	enriched	49	9	47	3	42	11	27	enriched	71	3	42	6	increased the viral RNA levels	–
HDLBP: host protein, UniProt Q00341 (protein, UniProt Q00341 2-1268, looked up) Vigilin: SSVAVLTQESFAEHRSGLVPQQIKVATLNSEEESDPPTYKDAFPPLPEKAACLESAQEPAGAWGNKIRPIKASVITQVFHVPLEERKYKDMNQFGEGEQAKICLEIMQRTGAHLELSLAKDQGLSIMVSGKLDAVMKARKDIVARLQTQASATVAIPKEHHRFVIGKNGEKLQDLELKTATKIQIPRPDDPSNQIKITGTKEGIEKARHEVLLISAEQDKRAVERLEVEKAFHPFIAGPYNRLVGEIMQETGTRINIPPPSVNRTEIVFTGEKEQLAQAVARIKKIYEEKKKKTTTIAVEVKKSQHKYVIGPKGNSLQEILERTGVSVEIPPSDSISETVILRGEPEKLGQALTEVYAKANSFTVSSVAAPSWLHRFIIGKKGQNLAKITQQMPKVHIEFTEGEDKITLEGPTEDVNVAQEQIEGMVKDLINRMDYVEINIDHKFHRHLIGKSGANINRIKDQYKVSVRIPPDSEKSNLIRIEGDPQGVQQAKRELLELASRMENERTKDLIIEQRFHRTIIGQKGERIREIRDKFPEVIINFPDPAQKSDIVQLRGPKNEVEKCTKYMQKMVADLVENSYSISVPIFKQFHKNIIGKGGANIKKIREESNTKIDLPAENSNSETIIITGKRANCEAARSRILSIQKDLANIAEVEVSIPAKLHNSLIGTKGRLIRSIMEECGGVHIHFPVEGSGSDTVVIRGPSSDVEKAKKQLLHLAEEKQTKSFTVDIRAKPEYHKFLIGKGGGKIRKVRDSTGARVIFPAAEDKDQDLITIIGKEDAVREAQKELEALIQNLDNVVEDSMLVDPKHHRHFVIRRGQVLREIAEEYGGVMVSFPRSGTQSDKVTLKGAKDCVEAAKKRIQEIIEDLEAQVTLECAIPQKFHRSVMGPKGSRIQQITRDFSVQIKFPDREENAVHSTEPVVQENGDEAGEGREAKDCDPGSPRRCDIIIISGRKEKCEAAKEALEALVPVTIEVEVPFDLHRYVIGQKGSGIRKMMDEFEVNIHVPAPELQSDIIAITGLAANLDRAKAGLLERVKELQAEQEDRALRSFKLSVTVDPKYHPKIIGRKGAVITQIRLEHDVNIQFPDKDDGNQPQDQITITGYEKNTEAARDAILRIVGELEQMVSEDVPLDHRVHARIIGARGKAIRKIMDEFKVDIRFPQSGAPDPNCVTVTGLPENVEEAIDHILNLEEEYLADVVDSEALQVYMKPPAHEEAKAPSRGFVVRDAPWTASSSEKAPDMSSSEEFPSFGAQVAPKTLPWGPKR	–	23	–	–	–	–	26	3	16	2	–	11	24	–	50	2	36	1	increased the viral RNA levels	–
CSDE1: host protein, UniProt O75534 (protein, UniProt O75534 1-798, looked up) Cold shock domain-containing …: MSFDPNLLHNNGHNGYPNGTSAALRETGVIEKLLTSYGFIQCSERQARLFFHCSQYNGNLQDLKVGDDVEFEVSSDRRTGKPIAVKLVKIKQEILPEERMNGQVVCAVPHNLESKSPAAPGQSPTGSVCYERNGEVFYLTYTPEDVEGNVQLETGDKINFVIDNNKHTGAVSARNIMLLKKKQARCQGVVCAMKEAFGFIERGDVVKEIFFHYSEFKGDLETLQPGDDVEFTIKDRNGKEVATDVRLLPQGTVIFEDISIEHFEGTVTKVIPKVPSKNQNDPLPGRIKVDFVIPKELPFGDKDTKSKVTLLEGDHVRFNISTDRRDKLERATNIEVLSNTFQFTNEAREMGVIAAMRDGFGFIKCVDRDVRMFFHFSEILDGNQLHIADEVEFTVVPDMLSAQRNHAIRIKKLPKGTVSFHSHSDHRFLGTVEKEATFSNPKTTSPNKGKEKEAEDGIIAYDDCGVKLTIAFQAKDVEGSTSPQIGDKVEFSISDKQRPGQQVATCVRLLGRNSNSKRLLGYVATLKDNFGFIETANHDKEIFFHYSEFSGDVDSLELGDMVEYSLSKGKGNKVSAEKVNKTHSVNGITEEADPTIYSGKVIRPLRSVDPTQTEYQGMIEIVEEGDMKGEVYPFGIVGMANKGDCLQKGESVKFQLCVLGQNAQTMAYNITPLRRATVECVKDQFGFINYEVGDSKKLFFHVKEVQDGIELQAGDEVEFSVILNQRTGKCSACNVWRVCEGPKAVAAPRPDRLVNRLKNITLDDASAPRLMVLRQPRGPDNSMGFGAERKIRQAGVID	enriched	37	enriched	92	1	–	–	–	20	1	–	–	18	–	21	1	24	3	–	proviral effects
